± gives the uncertainty stated by the source.
Test: amyloid nucleation score (Sup35N fusion, yeast selection) (log enrichment); library NNK2; higher = more nucleation; inactive = no reads after selection
In short: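 The nucleation score, computed with DiMSum, is the log enrichment of output over input reads, centred on the mode score of non-aggregating sequences. Sequences with under 100 input reads were dropped. Reads were generated by Illumina sequencing of plasmid inserts from psi-negative yeast with Sup35N fused to peptides of 20 random codons, induced with 100 μM copper sulfate for 24 hours and grown 7 days at 30°C on medium lacking adenine and uracil.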

| Substance | amyloid nucleation score |
| --- | --- |
| FGYFNVHSKSSGIMKWCGQC | -0.612 ± 0.54 |
| FGYFYMKHLTPALMPYTGY | -0.441 ± 1.1 |
| FGYMCEAPHRVDFRLFELLQ | inactive |
| FHDNVTQFFISISAKIYKA | 4.45 ± 0.058 |
| FHGHQPYFWNVL | 0.326 ± 0.54 |
| FHLRWRFSSSSNNITRRRCR | 0.115 ± 1 |
| FHNLASFVRKSRVYQHKRNA | -0.231 ± 0.63 |
| FHQIKFRVSFMHCRTSSANI | 2.25 ± 0.089 |
| FHRCSYLVT | 2.95 ± 0.09 |
| FHRNMMVLQCIRRVL | 0.016 ± 1.1 |
| FHSRAEICLIWNHIVQDWRN | 3.58 ± 0.071 |
| FHVKIGW | -0.086 ± 0.33 |
| FIDIKSICCRHMNDWHCLSE | -0.603 ± 0.32 |
| FIFLNNIHTYIYYVR | 6.292 ± 0.034 |
| FIGVSGLRCRGVMCSCYASY | 1.53 ± 0.17 |
| FIHTRRCKYGWTSRFKTLTW | 0.105 ± 1.1 |
| FIILI | -1.29 ± 0.54 |
| FIIVK | -1.32 ± 0.41 |
| FILDGSPVYWAIWKGG | -1.46 ± 0.78 |
| FIMYFVASRVNSYSSTLRVN | inactive |
| FINNNNGAPSRVHPTGALTR | -0.357 ± 0.53 |
| FIPYNSW | 0.689 ± 0.16 |
| FIRHSTSALGP | 0.889 ± 0.43 |
| FISSSYSKEFSIYEFIDIFR | -0.539 ± 0.54 |
| FITDYTWTYLHAWLFIHQGV | -0.705 ± 1.1 |
| FKAVS | -0.291 ± 1.1 |

| Substance | amyloid nucleation score |
| --- | --- |
| FKFKLGNGIMDGSRMGHWAL | 1.17 ± 0.47 |
| FKGHHGHKVWETH | -0.145 ± 1.1 |
| FKGVCCMHNELASIDQWVGG | 0.192 ± 0.56 |
| FKILFLAHRLTGLFKSSTGF | inactive |
| FKLGGSNVDDFFVFNWITVF | -0.596 ± 0.76 |
| FKRDLMLYFCCSWCRKVCVY | -0.432 ± 0.34 |
| FKSLLCLFAWRLVTFHVGE | -0.73 ± 1.1 |
| FKTVCVGKCLVFMVTDAELI | -1.49 ± 0.76 |
| FKYVFCSDEVGSMYVMCNCM | 8.568 ± 0.034 |
| FLDKCVRSSIENYWV | -0.074 ± 1.1 |
| FLFQWLLEKPYFYPAFCKCK | 4.49 ± 0.061 |
| FLFVNDVGRE | inactive |
| FLGTHVHANCSGYMVMIVYR | 7.773 ± 0.041 |
| FLIFSYIGLFSVISYRSARV | inactive |
| FLIRDLAMHSSCSGSAIMIT | -0.713 ± 0.37 |
| FLKIYPIPNCYERCCVHLPP | 0.06 ± 0.61 |
| FLLPGCSLIFFYCSGCSMV | 5.014 ± 0.031 |
| FLMANSFFCNCFYTVYFTHC | 4.52 ± 0.047 |
| FLMISWSLWGFFLY | inactive |
| FLMYK | -0.75 ± 0.76 |
| FLRYHNAGALENIRYVSCLC | -0.253 ± 0.56 |
| FLSYFCIIFSTNLKLSSK | 2.1 ± 0.15 |
| FLSYLN | -0.322 ± 0.5 |
| FLVIVQPSHFGCSKSNKGVW | 0.453 ± 0.66 |
| FLVLGFMIWYTLRCLALTFS | inactive |
| FLWKRVVLSREEMAMDTTGS | 5.47 ± 0.066 |

| Substance | amyloid nucleation score |
| --- | --- |
| FLWYGISVI | 0.02 ± 0.4 |
| FLYNFSHIRFVMYNRNESCF | 3.48 ± 0.13 |
| FMIMNYNQLCINRCLNGGRV | 9.059 ± 0.044 |
| FMLQVVGRVEVFH | 3.32 ± 0.066 |
| FMLRTAQSHISSTVTSVKQA | 0.064 ± 0.4 |
| FMMELCLALYLLSYQ | 0.061 ± 0.8 |
| FMNLTLGIYKDFITFMMYVS | 1.83 ± 0.12 |
| FMSIFDWSCVWFYLCKGTWD | -1.75 ± 0.54 |
| FMSRTWLAYFTCKMLHGLLR | 0.863 ± 0.41 |
| FMSVFTSAFLISHIMLV | 0.21 ± 1 |
| FMYLPL | -0.596 ± 0.3 |
| FNFVMLYPTPAGSAKFVGCI | 2.85 ± 0.19 |
| FNGLSSFSFMLIGTGFDISC | -0.934 ± 0.64 |
| FNRLA | -0.603 ± 1.1 |
| FNSLILQIIVVRV | 7.843 ± 0.04 |
| FNTRMSIKSGNMTWSNYYWF | 5.771 ± 0.053 |
| FNVAGRRRISGTNLY | -0.159 ± 1.1 |
| FNVDKRPRSDVCLAGCISD | -0.825 ± 0.56 |
| FNVSVGMMNFRMERLGI | -0.819 ± 0.42 |
| FPAQPAVRSRSACWYVLQVR | 0.111 ± 0.49 |
| FPASHRVVQV | 5.41 ± 0.065 |
| FPFLDGVVLSKEFYNLR | -1 ± 1 |
| FPGLDGNQMFRLC | 0.42 ± 0.66 |
| FPGRSSCDHTAMWLL | 0.732 ± 0.4 |
| FPIAVVKRALDLAVNGLESD | 0.021 ± 0.44 |
| FPMFSYTSMHYGH | 1.83 ± 0.17 |

| Substance | amyloid nucleation score |
| --- | --- |
| FPNLFYFADYVLICNLMIKL | 4.585 ± 0.029 |
| FPQFNRIWSSNFFAHIEGLN | -1.85 ± 0.44 |
| FPTFFCLAIIWKYMFLLIKF | -0.238 ± 1.1 |
| FPTFQSLRDPRHMLFRGNFM | -0.317 ± 1.1 |
| FPWQSSDYFWNHARRS | -0.043 ± 0.6 |
| FQNGQDGYGESLV | -0.898 ± 1.1 |
| FQVSCVHQVPRAAGVADGAV | 0.375 ± 0.21 |
| FRAPFTDAGPWSSSGNFLRL | -0.151 ± 0.37 |
| FRDIVWF | -0.469 ± 0.55 |
| FRFSNR | 0.389 ± 0.56 |
| FRFWLIDAHLLWDFSYLDTR | 3.28 ± 0.13 |
| FRGIPCLCHVIM | 5.81 ± 0.081 |
| FRGSAFS | 7.173 ± 0.051 |
| FRHYSYRRWQSLHKIVGICH | inactive |
| FRIIYKWCLMPLMPGCGGM | inactive |
| FRKSFHIYIVELYMDDHPLM | inactive |
| FRLAVFSEFQCFR | 1.9 ± 0.12 |
| FRLNMAYDEPVCLMGSVHNV | -1.38 ± 0.54 |
| FRLTIDNFDVNGLLSEMAYG | -0.293 ± 0.38 |
| FRMSVKR | 0.309 ± 0.33 |
| FRMVSKPMLYNIMRFTSMLV | 0.057 ± 1.1 |
| FRNAGIKRCPFVTRDQSTHF | inactive |
| FRSNYVKAFRYLYVGLVVNL | -0.505 ± 1.1 |
| FRYIKPTCSFICLVRFVGDF | -0.833 ± 1 |
| FRYRKSLDCNAMVPERQTGT | 1.11 ± 0.53 |
| FSFEMDISLWALWGYMRSDL | inactive |

| Substance | amyloid nucleation score |
| --- | --- |
| FSFYLTQSKSALIIDVAQRI | -0.231 ± 0.49 |
| FSGFVCWQADIFDDANIRLV | -0.707 ± 0.78 |
| FSHFAPWLSSDLCMWSCYLG | 5.269 ± 0.041 |
| FSIDVSSYRMWLPVSDLYFI | -0.545 ± 0.76 |
| FSLFCPWRKWLLDEVFM | 0.5 ± 0.27 |
| FSLGQKLLFCFCEVCWLNVA | 2.97 ± 0.1 |
| FSMRSKQGRTFTRLQDGSGL | 4 ± 0.046 |
| FSNIVNCSDRCATCVYFEFV | 4.808 ± 0.047 |
| FSNSHIVMVENLTDIVSVTT | inactive |
| FSRVESEIHSHWPW | 5.639 ± 0.041 |
| FSSNTKSNKRIDV | 0.147 ± 0.8 |
| FSSRNFNLCRKTYWWCDSYQ | -0.066 ± 1 |
| FSSWAFLMSRLCYHDSESHL | 0.417 ± 0.16 |
| FSTHDIGSRKWARQYLYVVH | 0.334 ± 0.31 |
| FSVRLSELSMTNLSTQYEIS | 1.82 ± 0.15 |
| FSWDPGMIWGKI | 7.203 ± 0.053 |
| FTFFIRYLERDWPRLL | -0.549 ± 0.74 |
| FTKSKWLWSRAAFLRIDRW | 0.799 ± 0.74 |
| FTVVIINISYTLSVLRERQM | 1.5 ± 0.14 |
| FTWVYMVGFKWWVSVCLLDS | -0.551 ± 0.28 |
| FTYLIEARG | 1.02 ± 0.41 |
| FTYRPISRNM | 4.99 ± 0.076 |

Source: the supplement of paper PMC12042874
